From patent US20150344570A1 (published 2015) come the findings set out here.

Experiment [1] concerns the target T1, FcγRIIa R (human, UniProt P12318 34-217).
T1 construct: extracellular domain; Soluble His-tagged extracellular domain expressed in FreeStyle293 cells; analyte in Biacore; also called FcgRIIa R; FcgRIIaR; not shown: His tag attached to the C terminus
T1 sequence (looked up): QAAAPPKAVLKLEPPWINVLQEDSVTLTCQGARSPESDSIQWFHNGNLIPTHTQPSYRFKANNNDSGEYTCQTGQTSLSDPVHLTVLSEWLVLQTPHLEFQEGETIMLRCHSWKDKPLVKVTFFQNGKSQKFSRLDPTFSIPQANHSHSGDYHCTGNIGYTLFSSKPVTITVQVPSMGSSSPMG
Briefly: SPR (Biacore), antibody captured via antigen peptide, FcγR as analyte.

For experiment [2], the target named is T2, FcγRIIb (human, UniProt P31994 43-217).
T2 construct: extracellular domain; Soluble His-tagged extracellular domain expressed in FreeStyle293 cells; analyte in Biacore; also called FcgRIIb; 2b; not shown: His tag attached to the C terminus
T2 sequence (looked up): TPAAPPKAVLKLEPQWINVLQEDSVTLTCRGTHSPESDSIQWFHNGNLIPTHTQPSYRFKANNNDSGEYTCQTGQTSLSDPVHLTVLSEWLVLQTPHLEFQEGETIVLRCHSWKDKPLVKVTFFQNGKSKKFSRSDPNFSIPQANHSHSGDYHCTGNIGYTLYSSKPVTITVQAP
The description is as above.

Experiment [3] deals with T1, FcγRIIa R. Briefly: ratio of He/Con_2aR to He/Con_2b (binding to FcγRIIb as reference); SPR.
Experiment [4] concerns the target T3, FcγRIIIa (human, UniProt P08637 17-208).
T3 construct: extracellular domain; also called FcgRIIIa; 3a
The experiment in a line: SPR (Biacore), relative binding.

In experiment [5] the target is T4, FcγRIIb (human, UniProt P31994 43-217).
T4 construct: extracellular domain; also called FcgRIIb; 2b
T4 sequence (looked up): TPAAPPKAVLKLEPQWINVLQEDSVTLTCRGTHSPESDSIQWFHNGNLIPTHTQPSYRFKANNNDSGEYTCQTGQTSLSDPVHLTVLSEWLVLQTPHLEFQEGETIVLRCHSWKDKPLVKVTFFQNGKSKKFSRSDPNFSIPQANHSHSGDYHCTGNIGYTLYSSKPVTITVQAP
Briefly: SPR (Biacore), relative binding.

Experiment [6] concerns the target T3, FcγRIIIa. Briefly: SPR; He/Con_3a divided by He/Con_2b (FcγRIIIa against FcγRIIb).

T3 sequence (P08637 17-208): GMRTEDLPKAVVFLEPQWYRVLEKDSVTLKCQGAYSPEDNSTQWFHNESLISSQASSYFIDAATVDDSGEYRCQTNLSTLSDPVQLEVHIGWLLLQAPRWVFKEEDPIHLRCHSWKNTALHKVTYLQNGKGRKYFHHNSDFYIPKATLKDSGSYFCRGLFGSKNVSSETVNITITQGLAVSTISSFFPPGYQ

B1: GpH7-A5/GpH7-B3 variant Y300_18N/GpL16-k0 (antibody, human IgG1, kappa)
heavy 1: not shown
heavy 2: not shown
light: DIVMTQSPLSLPVTPGEPASISCQASESLVHSNRNTYLHWYLQKPGQSPQLLIYKVSNRFSGVPDRFSGSGSGTDFTLKISRVEAEDVGVYYCSQNTHVPPTFGQGTKVEIERTVAAPSVFIFPPSDEQLKSGTASVVCLLNNFYPREAKVQWKVDNALQSGNSQESVTEQDSKDSTYSLSSTLTLSKADYEKHKVYACEVTHQGLSSPVTKSFNRGEC
notes: Heterodimerized anti-glypican-3 IgG1 antibody; alteration only in the GpH7-B3 H chain; position in EU numbering; also called He Ab
As to B1, the “He/Con_2aR (IIaR binding relative to GpH7-A5/GpH7-B3/GpL16-k0)” value with FcγRIIa R [1] is 100 % of control (control = 100). The “He/Con_2b (IIb binding relative to GpH7-A5/GpH7-B3/GpL16-k0)” value with FcγRIIb [2] is 82.7 % of control (control = 100). For the same molecule, the “He_2aR/2b (IIaR/IIb)” value in the experiment with FcγRIIa R [3] came to 1.21.

B2: GpH7-A5/GpH7-B3 variant V266_01G/GpL16-k0 (antibody, human IgG1, kappa)
heavy 1: not shown
heavy 2: not shown
light: DIVMTQSPLSLPVTPGEPASISCQASESLVHSNRNTYLHWYLQKPGQSPQLLIYKVSNRFSGVPDRFSGSGSGTDFTLKISRVEAEDVGVYYCSQNTHVPPTFGQGTKVEIERTVAAPSVFIFPPSDEQLKSGTASVVCLLNNFYPREAKVQWKVDNALQSGNSQESVTEQDSKDSTYSLSSTLTLSKADYEKHKVYACEVTHQGLSSPVTKSFNRGEC
notes: mutation in the GpH7-B3 chain only; also called He Ab
For B2, in the experiment with FcγRIIIa [4], the He/Con_3a is 24 % of GpH7-A5/GpH7-B3/GpL16-k0. Moreover, the He/Con_2b with FcγRIIb [5] is 51.5 % of GpH7-A5/GpH7-B3/GpL16-k0. For the same molecule, the “He_3a/2b (IIIa/IIb)” value in the experiment with FcγRIIIa [6] was 0.47 ratio.

B3: GpH7-A5/GpH7-B3 variant D265_11K/GpL16-k0 (antibody, human IgG1, kappa)
heavy 1: not shown
heavy 2: not shown
light: DIVMTQSPLSLPVTPGEPASISCQASESLVHSNRNTYLHWYLQKPGQSPQLLIYKVSNRFSGVPDRFSGSGSGTDFTLKISRVEAEDVGVYYCSQNTHVPPTFGQGTKVEIERTVAAPSVFIFPPSDEQLKSGTASVVCLLNNFYPREAKVQWKVDNALQSGNSQESVTEQDSKDSTYSLSSTLTLSKADYEKHKVYACEVTHQGLSSPVTKSFNRGEC
notes: as for B2
As to B3, in the experiment with FcγRIIIa [4], the He/Con_3a is 2.5 % of GpH7-A5/GpH7-B3/GpL16-k0. Besides, the He/Con_2b with FcγRIIb [5] was 14.9 % of GpH7-A5/GpH7-B3/GpL16-k0. Moreover, in the experiment with FcγRIIIa [6], the “He_3a/2b (IIIa/IIb)” value amounted to 0.17 ratio.

B4: GpH7-A5/GpH7-B3 variant D265_03V/GpL16-k0 (antibody, human IgG1, kappa)
heavy 1: not shown
heavy 2: not shown
light: DIVMTQSPLSLPVTPGEPASISCQASESLVHSNRNTYLHWYLQKPGQSPQLLIYKVSNRFSGVPDRFSGSGSGTDFTLKISRVEAEDVGVYYCSQNTHVPPTFGQGTKVEIERTVAAPSVFIFPPSDEQLKSGTASVVCLLNNFYPREAKVQWKVDNALQSGNSQESVTEQDSKDSTYSLSSTLTLSKADYEKHKVYACEVTHQGLSSPVTKSFNRGEC
notes: as for B2
Turning to B4, the He/Con_3a with FcγRIIIa [4] was 0.6 % of GpH7-A5/GpH7-B3/GpL16-k0. In addition, in the experiment with FcγRIIb [5], the He/Con_2b is 3.2 % of GpH7-A5/GpH7-B3/GpL16-k0. The “He_3a/2b (IIIa/IIb)” value in the experiment with FcγRIIIa [6] was 0.19 ratio.

B5: GpH7-A5/GpH7-B3 variant D265_18N/GpL16-k0 (antibody, human IgG1, kappa)
heavy 1: not shown
heavy 2: not shown
light: DIVMTQSPLSLPVTPGEPASISCQASESLVHSNRNTYLHWYLQKPGQSPQLLIYKVSNRFSGVPDRFSGSGSGTDFTLKISRVEAEDVGVYYCSQNTHVPPTFGQGTKVEIERTVAAPSVFIFPPSDEQLKSGTASVVCLLNNFYPREAKVQWKVDNALQSGNSQESVTEQDSKDSTYSLSSTLTLSKADYEKHKVYACEVTHQGLSSPVTKSFNRGEC
notes: as for B2
With B5, the He/Con_3a with FcγRIIIa [4] was 4.6 % of GpH7-A5/GpH7-B3/GpL16-k0. For the same molecule, the He/Con_2b with FcγRIIb [5] was 6.1 % of GpH7-A5/GpH7-B3/GpL16-k0. Besides, the “He_3a/2b (IIIa/IIb)” value with FcγRIIIa [6] was 0.74 ratio.

B6: GpH7-A5/GpH7-B3 variant D265_12R/GpL16-k0 (antibody, human IgG1, kappa)
heavy 1: not shown
heavy 2: not shown
light: DIVMTQSPLSLPVTPGEPASISCQASESLVHSNRNTYLHWYLQKPGQSPQLLIYKVSNRFSGVPDRFSGSGSGTDFTLKISRVEAEDVGVYYCSQNTHVPPTFGQGTKVEIERTVAAPSVFIFPPSDEQLKSGTASVVCLLNNFYPREAKVQWKVDNALQSGNSQESVTEQDSKDSTYSLSSTLTLSKADYEKHKVYACEVTHQGLSSPVTKSFNRGEC
notes: as for B2
As for B6, the He/Con_3a in the experiment with FcγRIIIa [4] is 3.2 % of GpH7-A5/GpH7-B3/GpL16-k0. The He/Con_2b with FcγRIIb [5] is 15 % of GpH7-A5/GpH7-B3/GpL16-k0. Also, the “He_3a/2b (IIIa/IIb)” value with FcγRIIIa [6] amounted to 0.21 ratio.

B7: GpH7-A5/GpH7-B3 variant D265_15Y/GpL16-k0 (antibody, human IgG1, kappa)
heavy 1: not shown
heavy 2: not shown
light: DIVMTQSPLSLPVTPGEPASISCQASESLVHSNRNTYLHWYLQKPGQSPQLLIYKVSNRFSGVPDRFSGSGSGTDFTLKISRVEAEDVGVYYCSQNTHVPPTFGQGTKVEIERTVAAPSVFIFPPSDEQLKSGTASVVCLLNNFYPREAKVQWKVDNALQSGNSQESVTEQDSKDSTYSLSSTLTLSKADYEKHKVYACEVTHQGLSSPVTKSFNRGEC
notes: as for B2
B7: the He/Con_3a with FcγRIIIa [4] is -1.7 % of GpH7-A5/GpH7-B3/GpL16-k0. In addition, the He/Con_2b in the experiment with FcγRIIb [5] was 0.6 % of GpH7-A5/GpH7-B3/GpL16-k0. In addition, in the experiment with FcγRIIIa [6], the “He_3a/2b (IIIa/IIb)” value was -2.86 ratio.

B8: GpH7-A5/GpH7-B3 variant D265_10E/GpL16-k0 (antibody, human IgG1, kappa)
heavy 1: not shown
heavy 2: not shown
light: DIVMTQSPLSLPVTPGEPASISCQASESLVHSNRNTYLHWYLQKPGQSPQLLIYKVSNRFSGVPDRFSGSGSGTDFTLKISRVEAEDVGVYYCSQNTHVPPTFGQGTKVEIERTVAAPSVFIFPPSDEQLKSGTASVVCLLNNFYPREAKVQWKVDNALQSGNSQESVTEQDSKDSTYSLSSTLTLSKADYEKHKVYACEVTHQGLSSPVTKSFNRGEC
notes: as for B2
Regarding B8, in the experiment with FcγRIIIa [4], the He/Con_3a is 20.1 % of GpH7-A5/GpH7-B3/GpL16-k0. Further, the He/Con_2b with FcγRIIb [5] was 38.2 % of GpH7-A5/GpH7-B3/GpL16-k0. Moreover, the “He_3a/2b (IIIa/IIb)” value with FcγRIIIa [6] was 0.53 ratio.
